According to the supplement of paper PMC11246515:
± gives the standard deviation of the averaged measurements.

Experiment: total protein half-life in vivo (active degradation + dilution); higher = more stable protein
[1] = E. coli NCM3722 delta-clpP delta-lon delta-hslV, growth: N-lim chemostat, doubling time 6 h
[2] = E. coli NCM3722 delta-clpP, growth: N-lim chemostat, doubling time 6 h
[3] = E. coli NCM3722 delta-hslV, growth: N-lim chemostat, doubling time 6 h
[4] = E. coli NCM3722 delta-lon, growth: N-lim chemostat, doubling time 6 h
[5] = E. coli NCM3722 delta-smpB, growth: N-lim chemostat, doubling time 6 h
[6] = wild type E. coli NCM3722, growth: C-lim chemostat, doubling time 3 h
[7] = wild type E. coli NCM3722, growth: C-lim chemostat, doubling time 6 h
[8] = wild type E. coli NCM3722, growth: C-lim chemostat, doubling time 12 h
[9] = wild type E. coli NCM3722, growth: N-lim chemostat, doubling time 6 h
[10] = wild type E. coli NCM3722, growth: N-lim chemostat, doubling time 12 h
[11] = wild type E. coli NCM3722, growth: P-lim chemostat, doubling time 6 h
[12] = wild type E. coli NCM3722, growth: P-lim chemostat, doubling time 12 h

Row | Sequence | total protein half-life in vivo [1] | total protein half-life in vivo [2] | total protein half-life in vivo [3] | total protein half-life in vivo [4] | total protein half-life in vivo [5] | total protein half-life in vivo [6] | total protein half-life in vivo [7] | total protein half-life in vivo [8] | total protein half-life in vivo [9] | total protein half-life in vivo [10] | total protein half-life in vivo [11] | total protein half-life in vivo [12]
1 | MTRAVKPRRFAIRPIIYASVLSAGVLLCAFSAHADERDQLKSIQADIAAKERAVRQKQQQRASLLAQLKKQEEAISEATRKLRETQNTLNQLNKQIDEMNASIAKLEQQKAAQERSLAAQLDAAFRQGEHTGIQLILSGEESQRGQRLQAYFGYLNQARQETIAQLKQTREEVAMQRAELEEKQSEQQTLLYEQRAQQAKLTQALNERKKTLAGLESSIQQGQQQLSELRANESRLRNSIARAEAAAKARAEREAREAQAVRDRQKEATRKGTTYKPTESEKSLMSRTGGLGAPRGQAFWPVRGPTLHRYGEQLQGELRWKGMVIGASEGTEVKAIADGRVILADWLQGYGLVVVVEHGKGDMSLYGYNQSALVSVGSQVRAGQPIALVGSSGGQGRPSLYFEIRRQGQAVNPQPWLGR | 6.31 ± 0.39 h | 6.29 ± 0.37 h | 6.76 ± 0.51 h | 7.049 ± 0.041 h | 6 ± 0.41 h | 3.18 ± 0.08 h | 5.778 ± 0.045 h | 11.3 ± 0.53 h | 6.31 ± 0.22 h | 13.1 ± 0.39 h | 5.92 ± 0.37 h | 12.9 ± 0.95 h
2 | MINVLLVDDHELVRAGIRRILEDIKGIKVVGEASCGEDAVKWCRTNAVDVVLMDMSMPGIGGLEATRKIARSTADVKIIMLTVHTENPLPAKVMQAGAAGYLSKGAAPQEVVSAIRSVYSGQRYIASDIAQQMALSQIEPEKTESPFASLSERELQIMLMITKGQKVNEISEQLNLSPKTVNSYRYRMFSKLNIHGDVELTHLAIRHGLCNAETLSSQ [P0AED5] | 5.39 ± 0.6 h | 2.492 ± 0.024 h | 1.84 ± 0.24 h | 2.66 ± 0.048 h | 1.67 ± 0.048 h | 1.72 ± 0.12 h | 3.04 ± 0.16 h | 4.05 ± 0.16 h | 1.89 ± 0.24 h | 2.67 ± 0.15 h | 1.8 ± 0.087 h | 3.89 ± 0.4 h
3 | MMPQSLPDTTTPKRRFRWPTGMPQLVALLLVLLVDSLVAPHFWQVVLQDGRLFGSPIDILNRAAPVALLAIGMTLVIATGGIDLSVGAVMAIAGATTAAMTVAGFSLPIVLLSALGTGILAGLWNGILVAILKIQPFVATLILMVAGRGVAQLITAGQIVTFNSPDLSWFGSGSLLFLPTPVIIAVLTLILFWLLTRKTALGMFIEAVGINIRAAKNAGVNTRIIVMLTYVLSGLCAAIAGIIVAADIRGADANNAGLWLELDAILAVVIGGGSLMGGRFNLLLSVVGALIIQGMNTGILLSGFPPEMNQVVKAVVVLCVLIVQSQRFISLIKGVRSRDKT | – | – | – | – | – | – | – | 8.92 h | – | – | – | –
4 | MNDSEFHRLADQLWLTIEERLDDWDGDSDIDCEINGGVLTITFENGSKIIINRQEPLHQVWLATKQGGYHFDLKGDEWICDRSGETFWDLLEQAATQQAGETVSFR | 5.94 ± 0.86 h | 6.07 h | 5.73 ± 0.14 h | 5.77 ± 0.51 h | 4.57 ± 1.3 h | 2.95 ± 0.78 h | 5.61 ± 1.6 h | 9.5 h | 5.34 ± 0.45 h | 9.68 ± 0.16 h | 5.67 ± 0.12 h | 11 ± 0.23 h
5 | MAKHLFTSESVSEGHPDKIADQISDAVLDAILEQDPKARVACETYVKTGMVLVGGEITTSAWVDIEEITRNTVREIGYVHSDMGFDANSCAVLSAIGKQSPDINQGVDRADPLEQGAGDQGLMFGYATNETDVLMPAPITYAHRLVQRQAEVRKNGTLPWLRPDAKSQVTFQYDDGKIVGIDAVVLSTQHSEEIDQKSLQEAVMEEIIKPILPAEWLTSATKFFINPTGRFVIGGPMGDCGLTGRKIIVDTYGGMARHGGGAFSGKDPSKVDRSAAYAARYVAKNIVAAGLADRCEIQVSYAIGVAEPTSIMVETFGTEKVPSEQLTLLVREFFDLRPYGLIQMLDLLHPIYKETAAYGHFGREHFPWEKTDKAQLLRDAAGLK [P0A817] | 2.78 ± 0.62 h | 2.16 ± 0.45 h | 2.01 ± 0.14 h | 2.41 ± 0.18 h | 2.15 ± 0.17 h | 2.97 ± 0.16 h | 4.63 ± 0.68 h | 6.86 ± 0.4 h | 2.1 ± 0.1 h | 2.72 ± 0.053 h | 5.17 ± 0.096 h | 9.5 ± 0.32 h
6 | MERNKLARQIIDTCLEMTRLGLNQGTAGNVSVRYQDGMLITPTGIPYEKLTESHIVFIDGNGKHEEGKLPSSEWRFHMAAYQSRPDANAVVHNHAVHCTAVSILNRSIPAIHYMIAAAGGNSIPCAPYATFGTRELSEHVALALKNRKATLLQHHGLIACEVNLEKALWLAHEVEVLAQLYLTTLAITDPVPVLSDEEIAVVLEKFKTYGLRIEE [P0AB87] | – | – | – | – | – | 2.81 ± 0.01 h | 4.78 ± 0.5 h | 7.71 ± 0.3 h | – | – | – | –
